We go through 2 molecules from US8975044B2, “Polynucleotides encoding for frizzled-binding agents and uses thereof” (OncoMed Pharmaceuticals, Inc., priority 2008, dated 2015).

In one assay the test system is OMP-C28 tumors. Briefly: Flow cytometry of ESA and CD44 on cells of treated OMP-C28 tumors. The class given is in vivo, NOD/SCID mice. The settings on record: tumors harvested day 48; control antibody 64%. On the procedure:
Control and treated tumors from the OMP-C28 xenograft study described above (Example 7) were harvested at the end of the study (day 48). The tumors were processed and dissociated into single cells. Tumor cells were then incubated with biotinylated mouse antibodies (α-mouse CD45-biotin 1:200 dilution and rat α-mouse H2 Kd-biotin 1:100 dilution, BioLegend, San Diego, Calif.) on ice for 30 min followed by addition of streptavidin-labeled magnetic beads (Invitrogen, Carlsbad, Calif.) to remove mouse cells with the aid of a magnet.
For analysis of cell surface markers, the single tumor cell suspension was stained with anti-ESA (Biomeda) and anti-CD44 (BD Biosciences) antibodies which were directly conjugated to fluorochromes. Dead cells were excluded by using the viability dye DAPI. Flow cytometry was performed using a FACS Aria (Becton Dickinson). Side scatter and forward scatter profiles were used to eliminate cell clumps.

Another assay relates to PN13 tumors. Briefly: Alcian blue and ki67 staining of treated PN13 tumor sections. The class given is in vivo, NOD/SCID mice. To be noted: vs control antibody. The procedure:
FIG. 43. Treatment with anti-FZD antibody 18R5 promotes differentiation of tumor cells into non-proliferative mucinous cells. NOD/SCID mice were injected with 50,000 OMP-PN13 pancreatic tumor cells and on day 23, mice with tumors of average volume of about 107 mm^3 were randomized, and treatment with control antibody or 18R5 was initiated four days later. After 20 days tumors were collected and sectioned. Tumor sections from 18R5 treated mice or control antibody treated mice were stained with alcian blue stain to reveal mucinous cells and by immunohistochemistry with antibody to ki67 to reveal proliferative cells. Exemplary mucinous cells and proliferative cells are highlighted by arrows.
Increased mucinous cells were also noted in a second pancreatic tumor line, PN13, following treatment with 18R5 […] (FIG. 43). In this experiment mice bearing PN13 tumors were treated as described above (Example 7). Tumors sections were stained with alcian blue to reveal mucinous cells and also stained by immunohistochemistry with an antibody to ki67 to reveal cells undergoing proliferation. […] Additionally, the frequency of ki67 positive cells was reduced by 18R5 treatment. […] This provides evidence that 18R5 treatment is promoting the differentiation of tumor cells into non-proliferative progeny.

For a further assay, the system named is OMP-PN13 cells. Briefly: Tumorgenic potential of Muc16-positive cells sorted from 18R5-treated OMP-PN13 tumors. The assay is classed as in vivo, NOD/SCID mice. The settings on record: 75 cells per mouse, 10 mice; no tumor from Muc16+ cells, 7 of 10 from Muc16− cells. On the procedure: OMP-PN13-bearing mice were treated with 18R5 according to the protocol described in Example 21. Mice were euthanized 12 days after initiation of the Ab treatment. Tumors were harvested and processed to obtain a single cell suspension using collagenase III to digest the tissues. Mouse stromal cells were stained with a biotinylated anti-H-2 Kd antibody and a biotinylated anti-CD45 antibody. They were then incubated with magnetic beads conjugated to streptavidin (Thermo MagnaBind) and depleted using a Dynal magnet. The resulting lin-depleted tumor cells were stained with an anti-Muc16 mAb detected with a PE-conjugated secondary Ab. Muc16− positive and Muc16− negative cells were sorted using an ARIA FACS machine ran by the DIVA software. Cells were re-injected subcutaneously in the left flank of NOD/SCID mice for comparison of their tumorgenic potentials. Each cell type was injected into 10 mice. Each mouse received 75 cells. Representative pictures of tumors resulting from the injection of Muc16− (upper panel) and Muc16+(lower panel) cells are shown in FIG. 52B. No tumor grew after injection of the Muc16+cells, while 7 of the 10 mice injected with the Muc16− cells developed tumors.

A further assay has as its system PN4 pancreatic tumor. Briefly: PN4 pancreatic tumor recurrence study. The assay is classed as in vivo, Nod-Scid mice. To be noted: gemcitabine 75 mg/kg once per week for 5 weeks, then antibody 10 mg/kg once per week. On the procedure:
PN4 pancreatic tumor recurrence study with 18R5 mAb: PN4 pancreatic tumor cells were injected into Nod-Scid mice and allowed to grow until the tumors had reached approximately 250 mm^3. The animals were given gemcitabine (75 mg/kg, once per week) for 5 weeks until tumors had regressed. The animals were randomized into two groups and given control antibody (black squares) or anti-FZD 18R5 (gray open circles). Antibodies were dosed at 10 mg/kg once per week.

The test system of a further assay is Wnt signaling. As to the kind of experiment: 8xTCF luciferase reporter assay in STF293 cells with Wnt-overexpressing HEK293 cells. The assay is classed as cell-based, human. The settings on record: 20 μg/ml; Wnt1, Wnt2, Wnt3, Wnt7A, Wnt7B, Wnt10B, Wnt3A inhibited; 18 hours. The procedure:
In further experiments, the ability of the 18R8 antibody to antagonize signaling by different Wnt ligands was determined. HEK 293 cells were transfected with Wntl, Wnt2, Wnt2b2, Wnt3, Wnt3a, Wnt7a, Wnt7b, Wnt8a, Wnt9b, and Wnt10b for forty eight hours by Fugene 6 (Roche). Wnt3A conditioned medium (“WNT3ACM”) was used as a positive control of activation. STF293 cells, were cultured in DMEM supplemented with antibiotics and 10% FCS and treated with 20 μg/ml 18R8 antibody or no antibody. The Wnt-overexpressing HEK293 cells were then added. Eighteen hours following treatment, luciferase levels were measured using a dual luciferase assay kit.
In general terms: Reporter assays use an easily measured gene product as a stand-in for the process of interest.

The next assay has as its target T1, FZD8 binding to Wnt3A (Homo sapiens, UniProt Q9H461).
T1 construct: amino acids 1-157 of FZD8 linked in-frame to human IgG1 Fc
T1 sequence (Q9H461 28-157): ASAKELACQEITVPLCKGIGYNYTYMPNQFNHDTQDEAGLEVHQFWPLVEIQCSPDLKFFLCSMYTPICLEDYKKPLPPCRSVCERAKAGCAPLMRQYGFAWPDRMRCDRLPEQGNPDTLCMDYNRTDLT
Briefly: Blocking of FZD8-Fc binding to Wnt3A (protein A depletion, STF293 reporter readout). The class given is biochemical. The settings on record: co-incubation with FZD8-Fc and Wnt3A conditioned medium, 2 hrs at 4° C., protein A beads removed. On the procedure:
To assess the ability of 18R8 to block the binding of FZD to Wnt, 2 μl of 1.32 μg/μl soluble FZD8-Fc containing the Fri domain (amino acids 1-157 of FZD8 linked in-frame to human IgG1 Fc) was added to culture medium to bind Wnt3A (added as 20 μl of Wnt3A conditioned medium) either alone or in the presence of the 18R8 IgG antibody (added as 4 μl of 3.71 μg/μl). The mixtures were incubated either alone or in the presence of Protein A sepharose beads (GE Healthcare products; 20 μl of 50% solution in PBS) for two hrs at 4° C. After the incubation, the protein A beads (and any proteins complexed to the protein A beads) in each sample were removed by spinning and the supernatant was assayed for ability to induce 8×TCF luciferase activity. The supernatant was added to STF293 cells, which stably express 8×TCF (eight copies of the TCF-binding domain upstream of a firefly luciferase reporter gene) to measure canonical Wnt signaling levels and which were cultured in DMEM supplemented with antibiotics and 10% FCS. Eighteen hours following treatment of the STF293 cells, luciferase levels were measured using a dual luciferase assay kit (Promega; Madison, Wis.).

B1: 18R5: human anti-FZD antibody; VH SEQ ID NO:10 (as 18R8), VL SEQ ID NO:14; binds FZD1, 2, 5, 7, 8 (antibody, V domains shown)
VH: EVQLVESGGGLVQPGGSLRLSCAASGFTFSHYTLSWVRQAPGKGLEWVSVISGDGSYTYYADSVKGRFTISSDNSKNTLYLQMNSLRAEDTAVYYCARNFIKYVFANWGQGTLVTVSS
VL: DIELTQPPSVSVAPGQTARISCSGDNIGSFYVHWYQQKPGQAPVLVIYDKSNRPSGIPERFSGSNSGNTATLTISGTQAEDEADYYCQSYANTLSLVFGGGTKLTVLG
modifications: 18R5/18R8 heavy chain variable region (VH); 18R5 light chain variable region (VL)
For the molecule B1, the “bulk tumor population expressing both ESA and CD44 at high levels (double positive)” value in the assay on OMP-C28 tumors is listed as 40%. In the assay on PN13 tumors, the “alcian blue positive mucinous cells” value is listed as “greatly increased numbers of alcian blue positive mucinous cells” and the “frequency of ki67 positive cells” value was “reduced”. Moreover, the “tumorgenicity of 18R5-induced Muc16+ cells” value in the assay with OMP-PN13 cells is recorded as “non-tumorgenic”. Besides, in the assay with PN4 pancreatic tumor, the “tumor recurrence after gemcitabine treatment” value is “delay tumor recurrence”.

B2: 18R8: human anti-FZD antibody from phage display; VH SEQ ID NO:10, VL SEQ ID NO:12; binds FZD1, 2, 5, 7, 8 (antibody, V domains shown)
VH: EVQLVESGGGLVQPGGSLRLSCAASGFTFSHYTLSWVRQAPGKGLEWVSVISGDGSYTYYADSVKGRFTISSDNSKNTLYLQMNSLRAEDTAVYYCARNFIKYVFANWGQGTLVTVSS
VL: DIELTQPPSVSVAPGQTARISCSGDKLGKKYASWYQQKPGQAPVLVIYEKDNRPSGIPERFSGSNSGNTATLTISGTQAEDEADYYCSSFAGNSLEVFGGGTKLTVLG
modifications: 18R5/18R8 heavy chain variable region (VH); 18R8 light chain variable region (VL)
Regarding B2, the “inhibition of signaling by different Wnt ligands” value in the assay on Wnt signaling was “inhibit signaling of a variety of Wnts”. Also, the “blocking of FZD8 binding to Wnt3A” value with FZD8 binding to Wnt3A was “blocked the ability of FZD8 to bind to Wnt3A”.
